The target of assay [1] is T1, full-length beta-Catenin (Uniprot ID P35222) (Homo sapiens (Human), UniProt P35222 1-781).
T1 construct: also called bCat; B-Catenin
T1 sequence: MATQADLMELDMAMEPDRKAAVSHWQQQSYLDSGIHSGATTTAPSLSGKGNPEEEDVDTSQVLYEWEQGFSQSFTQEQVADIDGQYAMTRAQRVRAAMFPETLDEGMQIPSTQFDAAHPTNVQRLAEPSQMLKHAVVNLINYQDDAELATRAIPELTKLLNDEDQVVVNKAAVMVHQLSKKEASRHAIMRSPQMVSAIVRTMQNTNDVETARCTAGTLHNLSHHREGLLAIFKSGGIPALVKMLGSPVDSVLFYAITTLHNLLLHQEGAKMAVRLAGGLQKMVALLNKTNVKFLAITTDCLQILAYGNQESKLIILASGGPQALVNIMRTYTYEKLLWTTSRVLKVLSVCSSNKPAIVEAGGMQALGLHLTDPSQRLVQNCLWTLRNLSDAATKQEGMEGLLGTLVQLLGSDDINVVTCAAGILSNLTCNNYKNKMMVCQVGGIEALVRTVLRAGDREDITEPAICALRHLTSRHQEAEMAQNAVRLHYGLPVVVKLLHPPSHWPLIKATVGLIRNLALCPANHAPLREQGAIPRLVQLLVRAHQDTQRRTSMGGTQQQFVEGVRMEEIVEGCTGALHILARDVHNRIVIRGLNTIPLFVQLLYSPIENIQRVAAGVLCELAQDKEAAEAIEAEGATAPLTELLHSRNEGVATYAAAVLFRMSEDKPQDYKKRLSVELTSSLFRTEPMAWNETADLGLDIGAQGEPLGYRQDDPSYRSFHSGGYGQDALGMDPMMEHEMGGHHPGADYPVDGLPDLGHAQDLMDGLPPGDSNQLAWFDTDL
The assay can be described thus: fluorescence polarization competition; full-length beta-catenin with 5FAM-labeled TCF4 residues 10-53 probe as competitor. As for the experimental part: (§1) The plate was incubated protected from light for 60 minutes at 20° C. prior to read. Reads were performed on a CLARIOstar plate reader (BMG Labtech) in duplicate, and data were fitted to a 1:1 binding model with hill slope using an in-house script. All provided concentrations are final concentrations.

Assay [2] has as its target T2, full-length beta-Catenin (Uniprot ID P35222) (Homo sapiens (Human), UniProt P35222 2-781).
T2 construct: Tags of the recombinant protein are not described for the FP assay; also called bCat; B-Catenin
T2 sequence: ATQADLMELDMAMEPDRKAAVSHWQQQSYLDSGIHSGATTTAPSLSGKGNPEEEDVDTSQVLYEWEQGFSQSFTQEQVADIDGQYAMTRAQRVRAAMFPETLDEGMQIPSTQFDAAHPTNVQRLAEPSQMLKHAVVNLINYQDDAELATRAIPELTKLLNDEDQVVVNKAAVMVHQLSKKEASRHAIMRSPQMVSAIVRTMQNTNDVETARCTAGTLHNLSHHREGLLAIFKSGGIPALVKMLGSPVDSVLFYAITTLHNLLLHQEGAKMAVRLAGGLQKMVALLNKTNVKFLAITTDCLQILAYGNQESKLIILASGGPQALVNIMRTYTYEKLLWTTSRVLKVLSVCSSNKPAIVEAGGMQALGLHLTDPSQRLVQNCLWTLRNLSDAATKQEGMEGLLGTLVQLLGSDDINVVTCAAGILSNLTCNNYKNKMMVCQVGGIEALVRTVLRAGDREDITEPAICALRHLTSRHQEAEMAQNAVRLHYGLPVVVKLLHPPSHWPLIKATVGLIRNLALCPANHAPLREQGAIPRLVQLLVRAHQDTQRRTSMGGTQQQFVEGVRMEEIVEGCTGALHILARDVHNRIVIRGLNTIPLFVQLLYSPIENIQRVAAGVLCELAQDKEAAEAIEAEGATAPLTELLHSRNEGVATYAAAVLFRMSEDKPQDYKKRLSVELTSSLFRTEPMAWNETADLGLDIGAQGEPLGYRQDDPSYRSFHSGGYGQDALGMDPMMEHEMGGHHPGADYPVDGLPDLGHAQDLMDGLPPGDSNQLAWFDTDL
In words: fluorescence polarization competition; full-length beta-catenin, competitor 5FAM-TCF4 10-53. As for the experimental part:
as §1
On the technique in general: In fluorescence polarisation assays a small probe gives low polarisation when free and higher when bound to something large.

Starred links: 1 amine or outer side, 2 acyl side, 3 side chain; linkers in the order of their positions; H or OH if unused. Positions of bridges follow the written chain, without caps; N, C: chain ends. Non-standard residues stand in square brackets, D forms with d. Primed or numbered codes have the meaning given here. B5(16) = 2-amino-2-(pent-4-en-1-yl)hept-6-enoic acid = 2,2-bis(4-pentenyl)glycine (stitching residue), C=CCCCC(CCCC=C)(N[*:1])C(=O)[*:2]; B5(5) = 2,2-bis(4-pentenyl)glycine, 2-amino-2-(pent-4-en-1-yl)hept-6-enoic acid (stitching residue), C=CCCCC(CCCC=C)(N[*:1])C(=O)[*:2]; B5(21) = 2-amino-2-(pent-4-en-1-yl)hept-6-enoic acid, bis(4-pentenyl)glycine (stitching residue), C=CCCCC(CCCC=C)(N[*:1])C(=O)[*:2]; (NHMe)AsnR = N4-methyl-L-asparagine, CNC(=O)C[C@H](N[*:1])C(=O)[*:2]; Bta = N[C@@H](Cc1csc2ccccc12)C(=O)O; αAllylPro = C=CC[C@@]1(C(=O)O)CCCN1; S8 = C=CCCCCCC[C@](C)(N)C(=O)O

B1: I-549 (peptide)
peptide: XDIXDDAAFNXFXQ
modifications: not fully specified; N-terminal Ac; PL3 at 1; B5 at 4; S8 at 11; 2OMeF at 12; BztA at 13; C-terminal NH2; staples PL3(1)-B5(4) and B5(4)-S8(11) by olefin metathesis
notes: It has the same description as I-550 and is the earlier eluting HPLC peak (staple isomer composition)
Usually IC50 stands for the point on the concentration scale where inhibition reaches its midpoint. Low values mean higher potency, high ones lower potency. In assay [1], B1 returned an IC50 of 71 nM.

B2: I-554 (peptide)
peptide: XDIXDDAAFNXFXH
modifications: not fully specified; N-terminal Ac; PL3 at 1; B5 at 4; S8 at 11; 2OMeF at 12; BztA at 13; C-terminal NH2; staples PL3(1)-B5(4) and B5(4)-S8(11) by olefin metathesis
As to B2, in assay [1], the IC50 amounted to 27.5 nM.

B3: I-560 (peptide)
peptide: Ac-[αAllylPro]DL[B5(5)]DDAAFQ[S8]F[Bta]H-NH2
modifications: staple 1-4, 4-11
B3 showed an IC50 in assay [1] of 81 nM.

B4: I-558 (peptide)
peptide: XDLXDDAAFQXFXQ
modifications: not fully specified; N-terminal Ac; PL3 at 1; B5 at 4; S8 at 11; BztA at 13; C-terminal NH2; staples PL3(1)-B5(4) and B5(4)-S8(11) by olefin metathesis
In assay [1], B4 gave an IC50 of 56 nM.

B5: I-559 (peptide)
peptide: XDLXDDAAFQXFXQ
modifications: not fully specified; N-terminal Ac; PL3 at 1; B5 at 4; S8 at 11; BztA at 13; C-terminal NH2; staples PL3(1)-B5(4) and B5(4)-S8(11) by olefin metathesis
notes: It has the same description as I-558 and is the later eluting HPLC peak (staple isomer composition)
B5: the IC50 in assay [1] came out at 43 nM.

B6: I-561 (peptide)
peptide: XDLXDDAAFQXFXH
modifications: not fully specified; N-terminal Ac; PL3 at 1; B5 at 4; S8 at 11; BztA at 13; C-terminal NH2; staples PL3(1)-B5(4) and B5(4)-S8(11) by olefin metathesis
notes: It has the same description as I-560 and is the later eluting HPLC peak (staple isomer composition)
B6 showed a concentration for half-maximal inhibition (IC50) in assay [1] of 34 nM.

B7: I-562 (peptide)
peptide: Ac-[αAllylPro]DL[B5(5)]DDAAFN[S8]F[Bta]Q-NH2
modifications: staple 1-4, 4-11
B7 registered an IC50 in assay [1] of 51 nM.

B8: I-553 (peptide)
peptide: XDIXDDAAFNXFXH
modifications: not fully specified; N-terminal Ac; PL3 at 1; B5 at 4; S8 at 11; 2OMeF at 12; BztA at 13; C-terminal NH2; staples PL3(1)-B5(4) and B5(4)-S8(11) by olefin metathesis
notes: It has the same description as I-554 and is the earlier eluting HPLC peak (staple isomer composition)
Molecule B8 came in with a concentration for half-maximal inhibition (IC50) in assay [1] of 61 nM.

B9: I-540 (peptide)
peptide: Ac-[αAllylPro]DA[B5(21)][(NHMe)AsnR]DAAFV[S8]F[Bta]Q-NH2
modifications: staple 1-4, 4-11
In turn, B9 showed a 50% inhibitory concentration (IC50) in assay [1] of 5000 nM.

B10: I-637 (peptide)
peptide: XDIXDEAAFQXFXP
modifications: not fully specified; As printed: Ac-PL3-Asp-Ile-B5-Asp-Glu-Ala-Ala-Phe-Gln-S8-Phe-BztA-Pro-NH2; N-terminal Ac, C-terminal NH2; PL3 (1), B5 (4), S8 (11), BztA (13); staples PL3-B5 and B5-S8 by olefin metathesis
notes: Stapled peptide composition; also called Ac-PL3-Asp-Ile-B5-Asp-Glu-Ala-Ala-Phe-Gln-S8-Phe-BztA-Pro-NH2
As to B10, the IC50 in assay [2] was determined as 5000 nM.

B11: I-636 (peptide)
peptide: Ac-[αAllylPro]DI[B5(16)]DEAAFQ[S8]F[Bta]Y-NH2
modifications: staple 1-4, 4-11
notes: Stapled peptide composition; also called Ac-PL3-Asp-Ile-B5-Asp-Glu-Ala-Ala-Phe-Gln-S8-Phe-BztA-Tyr-NH2
B11 showed a concentration for half-maximal inhibition (IC50) in assay [2] of 198 nM.

B12: I-634 (peptide)
peptide: Ac-[αAllylPro]DI[B5(16)]DEAAFQ[S8]F[Bta]L-NH2
modifications: staple 1-4, 4-11
notes: Stapled peptide composition; also called Ac-PL3-Asp-Ile-B5-Asp-Glu-Ala-Ala-Phe-Gln-S8-Phe-BztA-Leu-NH2
As to B12, the IC50 in assay [2] turned out to be 425 nM.

B13: I-633 (peptide)
peptide: Ac-[αAllylPro]DI[B5(16)]DEAAFQ[S8]F[Bta]R-NH2
modifications: staple 1-4, 4-11
notes: Stapled peptide composition; also called Ac-PL3-Asp-Ile-B5-Asp-Glu-Ala-Ala-Phe-Gln-S8-Phe-BztA-Arg-NH2
In turn, B13 gave a half-inhibitory concentration (IC50) in assay [2] of 88 nM.

B14: I-639 (peptide)
peptide: XDIXDEAAFQXFXS
modifications: not fully specified; As printed: Ac-PL3-Asp-Ile-B5-Asp-Glu-Ala-Ala-Phe-Gln-S8-Phe-BztA-Ser-NH2; N-terminal Ac, C-terminal NH2; PL3 (1), B5 (4), S8 (11), BztA (13); staples PL3-B5 and B5-S8 by olefin metathesis
notes: Stapled peptide composition; also called Ac-PL3-Asp-Ile-B5-Asp-Glu-Ala-Ala-Phe-Gln-S8-Phe-BztA-Ser-NH2
The molecule B14 came in with an IC50 in assay [2] of 109 nM.

B15: I-635 (peptide)
peptide: Ac-[αAllylPro]DI[B5(16)]DEAAFQ[S8]F[Bta]F-NH2
modifications: staple 1-4, 4-11
notes: Stapled peptide composition; also called Ac-PL3-Asp-Ile-B5-Asp-Glu-Ala-Ala-Phe-Gln-S8-Phe-BztA-Phe-NH2
B15: the IC50 in assay [2] amounted to 171 nM.
